The target in assay [1] is MAGE-A1 target antigen peptide … presented by HLA-A*02:01 on cells (human). Nature of the assay: cell-based or functional assay. Further details: EC50 Enhancement Factor: unit not given beside the values.
The target in assay [2] is T1, MAGE-A1 peptide on HLA-A*02:01 (human).
T1 peptide: KVLEYVIKV
Nature of the assay: JKR9 reporter + peptide-loaded T2, 16 h; full-length, on cells.

B1: ht27M1004 (TCR, V domains shown)
Valpha: GEDVEQSLFLSVREGDSSVINCTYTDSSSTYLYWYKQEPGAGLQLLTYIFSNMDMKQDQRLTVLLNKKDKHLSLRIADTQTGDSAIYFCAGSGGGTDKLIFGTGTRLQVFP
Vbeta: GAVVSQHPSWVICKSGTSVKIECRSLDFQATTMFWYRQFPKQSLMLMATSNEGSKATYEQGVEKDKFLINHASLTLSTLTVTSAHPEDSSFYICSAREPGQGPFEQYFGPGTRLTVT
B1: in assay [1], the EC50 Enhancement Factor is 944 and the EC50 Value (M), JKR9 reporter activation by peptide-loaded T2 cells was 1.76e-08 M. Further, in assay [2], the EC50 of peptide was 17.6 nM.

B2: ht27M1011 (TCR, V domains shown)
Valpha: GEDVEQSLFLSVREGDSSVINCTYTDSSSTYLYWYKQEPGAGLQLLTYIFSNMDMKQDQRLTVLLNKKDKHLSLRIADTQTGDSAIYFCAGSGGGTDKLIFGTGTRLQVFP
Vbeta: GAVVSQHPSWVICKSGTSVKIECRSLDFQATTMFWYRQFPKQSLMLMATSDYQTCVTYEQGVEKDKFLINHASLTLSTLTVTSAHPEDSSFYICSAREPGQGPWEQYFGPGTRLTVT
With B2, in assay [1], the EC50 Enhancement Factor came out at 2020 and the EC50 Value (M), JKR9 reporter activation by peptide-loaded T2 cells was found to be 8.24e-09 M. Also, in assay [2], the EC50 of peptide was 8.24 nM.

B3: ht27M1012 (TCR, V domains shown)
Valpha: GEDVEQSLFLSVREGDSSVINCTYTDSSSTYLYWYKQEPGAGLQLLTYIFSNMDMKQDQRLTVLLNKKDKHLSLRIADTQTGDSAIYFCAGSGGGTDKLIFGTGTRLQVFP
Vbeta: GAVVSQHPSWVICKSGTSVKIECRSLDFQATTMFWYRQFPKQSLMLMATSNEGSKATYEQGVEKDKFLINHASLTLSTLTVTSAHPEDSSFYICSAREPGGGPFEQYFGPGTRLTVT
Take B3: in assay [1], the EC50 Enhancement Factor is 637 and the EC50 Value (M), JKR9 reporter activation by peptide-loaded T2 cells stood at 2.61e-08 M. In addition, in assay [2], the EC50 of peptide was determined as 26.1 nM.

B4: ht27M1013 (TCR, V domains shown)
Valpha: GEDVEQSLFLSVREGDSSVINCTYTDSSSTYLYWYKQEPGAGLQLLTYIFSNMDMKQDQRLTVLLNKKDKHLSLRIADTQTGDSAIYFCAGSGGGTDKLIFGTGTRLQVFP
Vbeta: GAVVSQHPSWVICKSGTSVKIECRSLDFQATTMFWYRQFPKQSLMLMATSNEGSKATYEQGVEKDKFLINHASLTLSTLTVTSAHPEDSSFYICSAREPGSGPFEQYFGPGTRLTVT
As for B4, in assay [1], the EC50 Enhancement Factor is 841 and the EC50 Value (M), JKR9 reporter activation by peptide-loaded T2 cells worked out at 1.98e-08 M. The EC50 of peptide in assay [2] turned out to be 19.8 nM.

B5: ht27M1019 (TCR, V domains shown)
Valpha: GEDVEQSLFLSVREGDSSVINCTYTDSSSTYLYWYKQEPGAGLQLLTYIFSNMDMKQDQRLTVLLNKKDKHLSLRIADTQTGDSAIYFCAGSGGGTDKLIFGTGTRLQVFP
Vbeta: GAVVSQHPSWVICKSGTSVKIECRSLDFQATTMFWYRQFPKQSLMLMATSDYQTCVTYEQGVEKDKFLINHASLTLSTLTVTSAHPEDSSFYICSAREPGSGPFEQYFGPGTRLTVT
For the molecule B5, in assay [1], the EC50 Enhancement Factor is 751 and the EC50 Value (M), JKR9 reporter activation by peptide-loaded T2 cells was 2.21e-08 M. Also, the EC50 of peptide in assay [2] stood at 22.1 nM.

B6: ht27M1243 (TCR, V domains shown)
Valpha: GEDVEQSLFLSVREGDSSVINCTYTDSSLTYLYWYKQEPGAGLQLLTYIFSNMDMKQDQRLTVLLNKKDKHLSLRIADTQTGDSAIYFCAGSGGGTDKLIFGTGTRLQVFP
Vbeta: GAVVSQHPSWVICKSGTSVKIECRSLDFQATTMFWYRQFPKQSLMLMATSNEGSKATYEQGVEKDKFLINHASLTLSTLTVTSAHPEDSSFYICSAREPGQGPYEQYFGPGTRLTVT
With B6, in assay [1], the EC50 Enhancement Factor is 56 and the EC50 Value (M), JKR9 reporter activation by peptide-loaded T2 cells was determined as 2.98e-07 M. Further, the EC50 of peptide in assay [2] is 298 nM.

B7: ht27M1226 (TCR, V domains shown)
Valpha: GEDVEQSLFLSVREGDSSVINCTYTDSLSTYLYWYKQEPGAGLQLLTYIFSNMDMKQDQRLTVLLNKKDKHLSLRIADTQTGDSAIYFCAGSGGGTDKLIFGTGTRLQVFP
Vbeta: GAVVSQHPSWVICKSGTSVKIECRSLDFQATTMFWYRQFPKQSLMLMATSNEGSKATYEQGVEKDKFLINHASLTLSTLTVTSAHPEDSSFYICSAREPGQGPYEQYFGPGTRLTVT
For the molecule B7, in assay [1], the EC50 Enhancement Factor stood at 28 and the EC50 Value (M), JKR9 reporter activation by peptide-loaded T2 cells came to 5.88e-07 M. Also, the EC50 of peptide in assay [2] worked out at 588 nM.

B8: ht27M1240 (TCR, V domains shown)
Valpha: GEDVEQSLFLSVREGDSSVINCTYTDSSMTYLYWYKQEPGAGLQLLTYIFSNMDMKQDQRLTVLLNKKDKHLSLRIADTQTGDSAIYFCAGSGGGTDKLIFGTGTRLQVFP
Vbeta: GAVVSQHPSWVICKSGTSVKIECRSLDFQATTMFWYRQFPKQSLMLMATSNEGSKATYEQGVEKDKFLINHASLTLSTLTVTSAHPEDSSFYICSAREPGQGPYEQYFGPGTRLTVT
Take B8: in assay [1], the EC50 Enhancement Factor stood at 151 and the EC50 Value (M), JKR9 reporter activation by peptide-loaded T2 cells amounted to 1.1e-07 M. Besides, the EC50 of peptide in assay [2] came out at 110 nM.

B9: ht27M1166 (TCR, V domains shown)
Valpha: GEDVEQSLFLSVREGDSSVINCTYTDSSSTYLYWYKQEPGAGLQLLTYIFSNMDMKQDQRLTVLLNKKDKHLSLRIADTQTGDSAIYFCAGSGGGTDKLIFGTGTRLQVFP
Vbeta: GAVVSQHPSWVICKSGTSVKIECRSLDFQATTMFWYRQFPKQSLMLMATSNEGSKATYEQGVEKDKFLINHASLTLSTLTVTSAHPEDSSFYICQAREPGQGPYEQYFGPGTRLTVT
On to B9, for which, in assay [1], the EC50 Enhancement Factor was 47 and the EC50 Value (M), JKR9 reporter activation by peptide-loaded T2 cells stood at 3.55e-07 M. Further, the EC50 of peptide in assay [2] came to 355 nM.

B10: ht27M1006 (TCR, V domains shown)
Valpha: GEDVEQSLFLSVREGDSSVINCTYTDSSSTYLYWYKQEPGAGLQLLTYIFSNMDMKQDQRLTVLLNKKDKHLSLRIADTQTGDSAIYFCAGSGGGTDKLIFGTGTRLQVFP
Vbeta: GAVVSQHPSWVICKSGTSVKIECRSLDFQATTMFWYRQFPKQSLMLMATSNEGSKATYEQGVEKDKFLINHASLTLSTLTVTSAHPEDSSFYICSAREPGQGPWEQYFGPGTRLTVT
B10: in assay [1], the EC50 Enhancement Factor amounted to 445 and the EC50 Value (M), JKR9 reporter activation by peptide-loaded T2 cells came to 3.74e-08 M. Also, the EC50 of peptide in assay [2] is 37.4 nM.

B11: ht27M1001 (TCR, V domains shown)
Valpha: GEDVEQSLFLSVREGDSSVINCTYTDSSSTYLYWYKQEPGAGLQLLTYIFSNMDMKQDQRLTVLLNKKDKHLSLRIADTQTGDSAIYFCAGSGGGTDKLIFGTGTRLQVFP
Vbeta: GAVVSQHPSWVICKSGTSVKIECRSLDFQATTMFWYRQFPKQSLMLMATSDYQTCVTYEQGVEKDKFLINHASLTLSTLTVTSAHPEDSSFYICSAREPGQGPYEQYFGPGTRLTVT
Regarding B11, in assay [1], the EC50 Enhancement Factor is 388 and the EC50 Value (M), JKR9 reporter activation by peptide-loaded T2 cells was 4.28e-08 M. Further, in assay [2], the EC50 of peptide turned out to be 42.8 nM.

B12: ht27M1170 (TCR, V domains shown)
Valpha: GEDVEQSLFLSVREGDSSVINCTYTDSSSTYLYWYKQEPGAGLQLLTYIFSNMDMKQDQRLTVLLNKKDKHLSLRIADTQTGDSAIYFCAGSGGGTDKLIFGTGTRLQVFP
Vbeta: GAVVSQHPSWVICKSGTSVKIECRSLDFQATTMFWYRQFPKQSLMLMATSNEGSKATYEQGVEKDKFLINHASLTLSTLTVTSAHPEDSSFYICHAREPGQGPYEQYFGPGTRLTVT
As for B12, in assay [1], the EC50 Enhancement Factor turned out to be 39 and the EC50 Value (M), JKR9 reporter activation by peptide-loaded T2 cells is 4.25e-07 M. Also, the EC50 of peptide in assay [2] came to 425 nM.

B13: ht27M1128 (TCR, V domains shown)
Valpha: GEDVEQSLFLSVREGDSSVINCTYTDSSSTYLYWYKQEPGAGLQLLTYIFSNMDMKQDQRLTVLLNKKDKHLSLRIADTQTGDSAIYFCAGSGGGTDKLIFGTGTRLQVFP
Vbeta: GAVVSQHPSWVICKSGTSVKIECRSLDFQATTMFWYRQFPKQSLMLMATSNEGSKATYEQGVEKDKFLINHASLTLSTLTVTSAHPEDSSFYICLAREPGQGPYEQYFGPGTRLTVT
On to B13, for which, in assay [1], the EC50 Enhancement Factor is 422 and the EC50 Value (M), JKR9 reporter activation by peptide-loaded T2 cells was 3.95e-08 M. In addition, the EC50 of peptide in assay [2] turned out to be 39.5 nM.

B14: ht27M1018 (TCR, V domains shown)
Valpha: GEDVEQSLFLSVREGDSSVINCTYTDSSSTYLYWYKQEPGAGLQLLTYIFSNMDMKQDQRLTVLLNKKDKHLSLRIADTQTGDSAIYFCAGSGGGTDKLIFGTGTRLQVFP
Vbeta: GAVVSQHPSWVICKSGTSVKIECRSLDFQATTMFWYRQFPKQSLMLMATSDYQTCVTYEQGVEKDKFLINHASLTLSTLTVTSAHPEDSSFYICSAREPGGGPFEQYFGPGTRLTVT
For B14, in assay [1], the EC50 Enhancement Factor came to 262 and the EC50 Value (M), JKR9 reporter activation by peptide-loaded T2 cells worked out at 6.36e-08 M. Besides, in assay [2], the EC50 of peptide was 63.6 nM.

B15: ht27M1005 (TCR, V domains shown)
Valpha: GEDVEQSLFLSVREGDSSVINCTYTDSSSTYLYWYKQEPGAGLQLLTYIFSNMDMKQDQRLTVLLNKKDKHLSLRIADTQTGDSAIYFCAGSGGGTDKLIFGTGTRLQVFP
Vbeta: GAVVSQHPSWVICKSGTSVKIECRSLDFQATTMFWYRQFPKQSLMLMATSNEGSKATYEQGVEKDKFLINHASLTLSTLTVTSAHPEDSSFYICSAREPGQGPLEQYFGPGTRLTVT
With B15, in assay [1], the EC50 Enhancement Factor is 11 and the EC50 Value (M), JKR9 reporter activation by peptide-loaded T2 cells was 1.55e-06 M. In addition, the EC50 of peptide in assay [2] stood at 1550 nM.

B16: ht27M1009 (TCR, V domains shown)
Valpha: GEDVEQSLFLSVREGDSSVINCTYTDSSSTYLYWYKQEPGAGLQLLTYIFSNMDMKQDQRLTVLLNKKDKHLSLRIADTQTGDSAIYFCAGSGGGTDKLIFGTGTRLQVFP
Vbeta: GAVVSQHPSWVICKSGTSVKIECRSLDFQATTMFWYRQFPKQSLMLMATSDYQTCVTYEQGVEKDKFLINHASLTLSTLTVTSAHPEDSSFYICSAREPGQGPFEQYFGPGTRLTVT
Turning to B16, in assay [1], the EC50 Enhancement Factor worked out at 2720 and the EC50 Value (M), JKR9 reporter activation by peptide-loaded T2 cells was 6.12e-09 M. For the same molecule, the EC50 of peptide in assay [2] amounted to 6.12 nM.

B17: ht27M1010 (TCR, V domains shown)
Valpha: GEDVEQSLFLSVREGDSSVINCTYTDSSSTYLYWYKQEPGAGLQLLTYIFSNMDMKQDQRLTVLLNKKDKHLSLRIADTQTGDSAIYFCAGSGGGTDKLIFGTGTRLQVFP
Vbeta: GAVVSQHPSWVICKSGTSVKIECRSLDFQATTMFWYRQFPKQSLMLMATSDYQTCVTYEQGVEKDKFLINHASLTLSTLTVTSAHPEDSSFYICSAREPGQGPLEQYFGPGTRLTVT
On to B17, for which, in assay [1], the EC50 Enhancement Factor turned out to be 820 and the EC50 Value (M), JKR9 reporter activation by peptide-loaded T2 cells came out at 2.03e-08 M. Besides, the EC50 of peptide in assay [2] stood at 20.3 nM.

These data come from patent EP4534554A1 (Corregene Biotechnology Co., Ltd., dated 2025).
